# B1: FOXD1: tunicamycin (protein)
# parent chain: MTLSTEMSDASGLAEETDIDVVGEGEDEEDEEEEDDDEGGGGGPRLAVPAQRRRRRRSYAGEDELEDLEEEEDDDDILLAPPAGGSPAPPGPAPAAGAGAGGGGGGGGAGGGGSAGSGAKNPLVKPPYSYIALITMAILQSPKKRLTLSEICEFISGRFPYYREKFPAWQNSIRHNLSLNDCFVKIPREPGNPGKGNYWTLDPESADMFDNGSFLRRRKRFKRQPLLPPNAAAAESLLLRGAGAAGGAGDPAAAAALFPPAPPPPPHAYGYGPYGCGYGLQLPPYAPPSALFAAAAAAAAAAAFHPHSPPPPPPPHGAAAELARTAFGYRPHPLGAALPGPLPASAAKAGGPGASALARSPFSIESIIGGSLGPAAAAAAAAQAAAAAQASPSPSPVAAPPAPGSSGGGCAAQAAVGPAAALTRSLVAAAAAAASSVSSSAALGTLHQGTALSSVENFTARISNC
# B2: FOXD1: ALG3 knockdown (protein)
# parent chain: B1 parent chain
# B3: FOXD1: GEM+TM (protein)
# parent chain: B1 parent chain
# What was measured:
# [1] = immunofluorescence, nuclear FOXD1; details: glycan lost
# Western blot of FOXD1 = details: glycan lost; control: vector control
protein,measurement,setting,value
B1,localisation_or_trafficking,[1]; control: untreated,decreases
B2,expression_or_secretion,Western blot of FOXD1,decreases
same,localisation_or_trafficking,[1]; control: vector control,decreases
B3,localisation_or_trafficking,[1]; control: GEM alone,decreases
